Reference: patent US20250144141A1 (CDR LIFE, published 2025)

Legend:
[1] = biological target: T1, HLA-A*02:01/MAGE-A4 complex (human, UniProt P04439 25-299 at identity 0.94); P61769 21-119); assay: not stated in the sentence (SPR is described in Example 7)
T1 construct: Coated on ELISA plates and on a streptavidin SPR chip; a biotin tag is not described; also called HLA-A2/MAGE-A4 complex; pMHC-MAGE-A4

[2] = biological target: CD3 heterodimer (Acro Biosystems) (UniProt P07766 23-126); assay: not stated in the sentence (SPR on a CD3 heterodimer chip is described in Example 7)
CD3 heterodimer (Acro Biosystems), sequence (P07766 23-126, one chain of several): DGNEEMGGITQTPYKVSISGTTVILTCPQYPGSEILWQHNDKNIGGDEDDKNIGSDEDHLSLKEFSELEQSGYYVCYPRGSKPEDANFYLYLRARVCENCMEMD

B1: M1048 (bispecific antibody)
chain 1: EVQLVESGGGLVQPGGSLRLSCAASGFTFSTYAMNWVRQAPGKGLEWVGRIRSKYNNYATYYADSVKGRFTISRDDSKNTLYLQMNSLRAEDTAVYYCVRHGNFGDSYVSWFAYWGQGTLVTVSSASTKGPSVFPLAPSSKSTSGGTAALGCLVKDYFPEPVTVSWNSGALTSGVHTFPAVLQSSGLYSLSSVVTVPSSSLGTQTYICNVNHKPSNTKVDKRVEPKSCGGGGSSYELTQPPSVSVSPGQTASITCTADTLSRSYASWYQQKPGQSPVLVIYRDTSRPSGIPERFSGSNSGNTATLTISGTQAMDEADYYCATRPSSGSNFQLFGGGTKLTVLGGGGGGSGGGGSGGGGSGGGGSESQVLESGGGSVQPGGSLRLSCTVSGFSLSNYAMSWVRQAPGKGLEYIGIVSSGGTTYYASWAKGRFTISKDTSKNTVYLQMNSLRAEDTASYYCAKDLYYGPTTYSAFNLWGQGTSVTVSS
chain 2: QAVVTQEPSLTVSPGGTVTLTCGSSTGAVTTSNYANWVQQKPGKSPRGLIGGTNKRAPGVPARFSGSLLGGKAALTISGAQPEDEADYYCALWYSNHWVFGGGTKLTVLGQPKAAPSVTLFPPSSEELQANKATLVCLISDFYPGAVTVAWKADSSPVKAGVETTTPSKQSNNKYAASSYLSLTPEQWKSHRSYSCQVTHEGSTVEKTVAPTECSGGGGSSYELTQPPSVSVSPGQTASITCTADTLSRSYASWYQQKPGQSPVLVIYRDTSRPSGIPERFSGSNSGNTATLTISGTQAMDEADYYCATRPSSGSNFQLFGGGTKLTVLGGGGGGSGGGGSGGGGSGGGGSESQVLESGGGSVQPGGSLRLSCTVSGFSLSNYAMSWVRQAPGKGLEYIGIVSSGGTTYYASWAKGRFTISKDTSKNTVYLQMNSLRAEDTASYYCAKDLYYGPTTYSAFNLWGQGTSVTVSS
Kd [1]: 0.25 nM | Kd [2]: 10 nM
